For assay [1], the target named is thermostable GHF11 xylanase AusM (Aspergillus usamii E001 (parent AuXyn11A)).
In assay [2] the target is AusM^N127A (Aspergillus usamii E001 (parent AuXyn11A)).

Where only a bound is given, the exact number is not on record here.

B1: xylanase inhibitor protein SyXIP-I (natural protein)
chain: AGGKTGQVTVFWGRNKAEGSLREACDSGMYTMVTMSFLDVFGANGKYHLDLSGHDLSSVGADIKHCQSKGVPVSLSIGGYGTGYSLPSNRSALDLFDHLWNSYFGGSKPSVPRPFGDAWLDGVDLFLEHGTPADRYDVLALELAKHNIRGGPGKPLHLTATVRCGYPPAAHVGRALATGIFERVHVRTYESDKWCNQNLGWEGSWDKWTAAYPATRFYVGLTADDKSHQWVHPKNVYYGVAPVAQKKDNYGGIMLWDRYFDKQTNYSSLIKYYA
In the case of B1, in assay [1], the molar excess of SyXIP-I over AusM needed for almost complete inhibition of xylanase activity (mol SyXIP-I per mol AusM) is more than 80 and the molar ratio of SyXIP-I to AusM at which the inhibition rate of xylanase activity reached 50% (birchwood xylan, pH 4.6, 50 °C) (mol SyXIP-I per mol AusM) worked out at 7. Also, in assay [2], the residual xylanase activity at a molar ratio of SyXIP-I/xylanase of 100:1 (% of initial activity) was 62.7.

For the origin of these results see paper PMC10572589.
